Test results published in US9360486B2, “Allergen fragments” (Biomay AG, priority 2007, dated 2016).
Entries after “also recorded” stand apart in the source; their conditions may differ.

Columns and labels:
[1] = test system: IgE of sera from ragweed pollen allergic patients; test: SDS-PAGE IgE immunoblot with patients' sera; type: binding, human; conditions: standard procedure for SDS-PAGE/immunoblotting
Description: Membrane strips were incubated with sera from ragweed pollen allergic patients (lanes 1-29) or with serum from a non-allergic donor (lane C). Bound IgE was detected with ^125I-labeled goat anti-human IgE. Ragweed pollen-sensitized patients were recruited in Austria (lanes 1-13) or in Italy (lanes 14-29).
The proteins were analyzed via SDS-PAGE using 15% acrylamide gels and 0.1% Coomassie staining with a molecular weight standard RPN 756 (GE Healthcare Life Sciences). Sera from allergic patients were tested for positive IgE-reactivity. rAmb a 1 and rArt v 6 were separated on 15% (w/w) polyacrylamide gels and electroblotted onto a PVDF membrane. After blocking the non-specific protein binding sites with Blocking buffer (per L: 7.5 g Na2HPO4, 1 g NaH2PO4, 5 g BSA and 5 mL Tween 20), the membrane was incubated with patients' sera (diluted 1:10 in Blocking buffer) for more than 6 hours at room temperature. The membrane was washed for at least 30 minutes with Blocking buffer before it was incubated with radiolabeled [^125 I]-anti human IgE (RAST, 5 µCi, MedPro) diluted in Blocking buffer (1:40) overnight at room temperature. After a second 30-minute wash, the membrane was placed onto an imaging plate. The screen was exposed for at least 24 hours and developed using a PhosphoImager Bas-1800 II scanner for detection and the instrument's supporting software (Fujifilm).
nAmb a 1 undergoes spontaneously proteolysis during purification and it is cleaved into two chains, alpha and beta chain, respectively.

[2] = test system: Amb a 1-specific TCL and TCC; test: Cytokine production in TCL and TCC (ELISA of supernatants); type: cell-based, human
Description: T cells were washed and incubated with irradiated autologous APC in the presence of the stimulant (5 μg/ml) for 48 hours. Cytokine levels in the resulting supernatants were measured in ELISA using matched antibody pairs (Endogen, USA) (sensitivity limits: IL-4: 9 pg/ml, IFN-γ: 9 pg/ml). Cultures containing TCC and APC alone served as negative controls. TCC with a ratio of IFN-γ/IL-4>10 were classified as Th1, 0.1-10 as Th0 and <0.1 as Th2. […] Proliferation and cytokine responses were determined.

[3] = test system: Amb a 1-specific TCL and TCC; test: Proliferation of Amb a 1-specific TCL and TCC with allergens and chains; type: cell-based, human; conditions: PBMC, TCL and TCC; different concentrations
Description: Peripheral blood mononuclear cells (PBMC) were isolated from heparinized blood of allergic patients by Ficoll density gradient centrifugation. To generate allergen-specific T cell lines (TCL) and T cell clones (TCC), 1.5×10^6 PBMC were stimulated with optimal doses of ragweed or mugwort extract (4 μg/ml) or rAmb a 1.3 (10 μg/ml) in 24-well flat-bottomed culture plates (Costar, USA). After 5 days human rIL-2 (10 U/ml, Boehringer, Mannheim, Germany) were added and cultures were continued for additional 7 days. Then, T cell blasts were isolated by density centrifugation. The majority of T cell blasts was further expanded with IL-2 and irradiated PBMC. A small number of T cell blasts were used to establish monoclonal T cell cultures by limiting dilution: 0.3 T cells/well were seeded into 96 well round bottom plates (Nunclone) in the presence of 2×10^5 irradiated (60 Gy) PBMC, 0.25% v/v PHA (Gibco, USA) and rIL-2 (4 U/well) in the medium mentioned above. After 14-21 days, growing microcultures were expanded at weekly intervals with irradiated PBMC and rIL-2. The specificity of TCC was assessed in proliferation assays using irradiated allogeneic or HLA-matched PBMC or irradiated EBV-transformed allogeneic B-cells and 5 μg/ml Amb a 1.3. After 48 hours, cellular uptake of tritiated (^3H)-thymidine was performed to measure proliferation in counts per minute (cpm). When the stimulation index (SI; ratio between cpm obtained in cultures containing TCC plus autologous APC plus antigen, and cpm obtained in cultures containing TCC and APC alone) was >10, responses were considered as positive. Allergen-specific TCC were expanded by alternating turns of stimulation with autologous irradiated APC and allergen or with allogeneic feeder cells and rIL-2.
Proliferation and cytokine responses were determined.
When compared with the results of the T cell epitope recognition in Table 3, 45/46 patients (98%) would recognize one or more epitopes in the Amb a 1 alpha-chain. […]

[4] = test system: IgE of sera from ragweed pollen allergic patients; test: IgE dot-blot / non-denaturing IgE binding of recombinant Amb a 1.3; set-up: species or system human; conditions: sera from 17 ragweed pollen allergic patients
Text: E. coli-produced rAmb a 1.3 was purified as described above and dotted on nitrocellulose membranes.
Thus, another approach for producing recombinant reagents with full IgE-binding activity was pursued, as described in section 4. Despite its low IgE-binding activity, rAmb a 1.3 was successfully used in vitro for T cell epitope mapping and proliferation assays, as correct folding is not essential for T cell recognition (see example 2).

B1: rAmb a 1.3: E. coli-produced full-length recombinant Amb a 1.3 isoform (R2 clone) (protein)
chain: AEGVGEILPSVNETRSLQACEALNIIDKCWRGKADWENNRQALADCAQGFAKGTYGGKWGDVYTVTSNLDDDVANPKEGTLRFAAAQNRPLWIIFKNDMVINLNQELVVNSDKTIDGRGVKVEIINGGLTLMNVKNIIIHNINIHDVKVLPGGMIKSNDGPPILRQASDGDTINVAGSSQIWIDHCSLSKSFDGLVDVTLGSTHVTISNCKFTQQSKAILLGADDTHVQDKGMLATVAFNMFTDNVDQRMPRCRFGFFQVVNNNYDRWGTYAIGGSSAPTILCQGNRFLAPDDQIKKNVLARTGTGAAESMAWNWRSDKDLLENGAIFVTSGSDPVLTPVQSAGMIPAEPGEAAIKLTSSAGVFSCHPGAPC
modifications: left off: things letters cannot carry
- reaction with patients IgE after reduction and heat treatment [1]: reacted with patients IgE
- cytokine production compared with ragweed extract (FIG. 5) or natural Amb a 1 (FIG. 6) [2]: comparable cytokine production
- T cell proliferation compared with natural Amb a 1 [3]: comparable T cell proliferations
- IgE reactivity in non-denaturing assays (dot blot, ELISA) [4]: not able to bind human IgE; also recorded: very weak or no IgE reactivity
